# According to a protein production outcome set (Wang et al. 2014):
# Assay: label from the status in PepcDB records
row,Sequence,protein production
1,MHIPDGIIPLWQCAVYWAVALINIGIFFYIFSKKPQKERRIVGTGLFAAAAAAVSSISVPSPFGVPVHFFLIPLAAILLGPLTAVIVATLCLVIQFFILGMGGLTSMGANILTMGIGLGVGTYAVYSVVSELDRSLAVFTATFFGIMVATVFHIMILLAAGVAGPEMLMATLIPFYIFVGVIEGAANIFIVSFLERMKPELTMMERV,failed
2,MHKEENMSDLYLKLVNTPVGKTAAQSLGLPSPAPLKRLKRVDQPFIEGDVLIGAGNGARAIATLGSIVGASPATLHHATGPETLAESAKTSNKAQALDITGEVSGKFSALIFDASGLQKPDELRALYDFFHPTIRKLATNGRVLVIGQDPHTCRKAPQAAAQQALEGFVRAVGKEIGKKGATANLVWIAPNAENQLDSSVRFFLSPRSAYVSGQVVRIGKADEAKATNPVAPLAGKVALVTGASRGIGAAIAETLARDGATVIGLDIPPALEELQKVTGALKGKALACDITDEKAPKLIADFIEKETGGVDFVIHNAGITRDKTLGNMPEHFWDMTIAVNLTAEELIDEELAERKLMRENGRIVCISSISGIAGNFGQTNYSCAKSGVIGYVEAMARHLKNGITINAIAPGFIETQMTAAMPFTIREAGRRMNSLSQGGQPVDVAEAIAWYCNPASAGVNGNVVRVCGQSLIGK,failed
3,MHLFIEGEIEHLVFPGLKSYIVPVWDLRTYQIFDMALRVHKNIQQRDMVIGRNLGNWILRGLDRMKPSAQVLLPKNTEPSIDKAKRVLQSTRLKPHVNTQTPQNREVDRNLFMSLRNFRSKYPIASMMMIKPPRSTGTTTQYRPYSVGESSLIKPIYARGGFNSVIRKDILQWMVQKR,failed
4,MHLYDKRPGGGASFSQILGQAKNRQGIFFNTTFAVMGHVAKASGRVTETDIRIATLLMDQMRLTGDARKEAQQAFREGKEPDFDLCSSLQAFRAVTQGRQELVQMFIEIQIQTALSDGELDAAEHAILMTVAQELGYGRLEHHHHHH,failed
5,MHMQVIQLHHPYEPNQIPNEEVVMVLGFFDGVHKGHQKVIETGKKIAEEKGLKLAVMTFNQHPSIVFQKVLPENMKYLTSLEQKERLMANLGVDILYIVEFTSAFAQLKPQDFVDQYIVNLNSAVAVSGFDYTYGPKEIAGVKQLPTYAQGRFEVVTVPKEEMTGAKISSTRIREKMEAGEMEEVTELLGYIYETEGTVVHGDARGRLLGFPTANVKVKSTVRLPRIGVYAVQIEVGGKWYVGMGSIGHNDTFGEGRDLTVEVYILDFHQDIYGEQVVVRWNHYLRDQVKFNGAEALIDQLKQDERDTADYFQQSEDK,failed
6,MHNFSFDVDESYAKKNNEILRDAKRLQISALCLGLILGGGAVAVYLFSNGAVWMWMIAIVMVFLALLSFIMIPVIPRQMGNAQTLYDDYELAPAIIAEVNPRDVVLLALVNRNVNPEAKPEWALATRTIVRVGAHERRLGERIPSVAITGRRTVKDQDHWDEISPMPITWGTTDKDIIREAEKTIPHELWAKLEKNRGKLEDVKKTPNNLFKL,failed
7,MHNSIMNKVAVIGLGNIATRHRRNLKSLFPNVELLVMSASGRIPTEEISDSDGIVTSIEALIEANVELVIVASPAPFHAQHSIPLIEAGIPTLIEKPVTTTREDANAIKKALNEHGTPVAIGYCLRYLPSAQKLKILLDHKAIGTLYNAHIEIGQYLPDWRPSKNYRECVSANEKLGGGALFELSHELDYAQWLLGPLALQHAILRSSDELDLQVEDMADILTLTESGAVASIHLDFLQRKAHRQCSFIGSEGRIDWDLIQNQLTLTTAAEAKVIYSEPEWDKNQMYLAMVTDFIQMIKQQPHNCIAVTDASFTVDLISQIKQKAY,failed
8,MHPDTTLILIAAASIVLLVLLVTRLKLHPFLALMVAAAFLGLASGLAPTDAVKTFQKGFGNILGSVGLVVGLGSMLGGLLLNTGGADRIANAFVGRGSTVWLPTSICAAALLIGMPHLFDVSFVMLVPLVFAIAKRTGSHLMRVGLPMAAGLYVSHGFLLPHPSPTLALAIYHGDAGRAILFGFLLAIPTAILSGPLLTSFAMRWFKDPIDITHSPIMTAAGRSDVTTLDNAPRLPVVLLTVLLPPGLMLLRTLLADHVPEGAARAFLDGIGNPIVSLAIAVLFAIWALGVRSGRSLGEIQKLLGKSLAPAAGVILIVGAGGGLKEMLLGTHIGDMIASGAAQWAISPLVLAWVIAALMRIAVGSATVATVTAAGLMAPVQALHPEISPELMTISVATGGLMLSHLNDSGFWLFKEYFQLTVAQTLKSWTLMVSVQSALGLAGVLLIDAVIR,failed
9,MHPLLRRLDLNLLLVFDALYRHRNVGTAASELAISASAFSHALGRLRQGLDDELFLRQGNRMQPTQRAEHLAAAVAAALRALGEGLEEWRPFVPGQSQRTFVFAATDYTAFALLPPLMNRLQHSAPGVRLRLVNAERKLSVEALASGRIDFALGYDEEHERLPEGIQAHDWFADRYVVVARRDHPRLAGAPTLEGYLAERHAVVTPWNEDSGVIDRLLARSGLRREVAVQLPTVLAALFLAGSTDFLLTAPRHAARALAEAAGLALYPAPFDIPPYVLRLYSHVQHVGRDAHAWMIGQLKGLDISRTG,not failed
10,MHQDVLLGGRYRLGAQLGGGSEAYVNEAWDLLSGKTVAVKIFRSTNSLDNAPFRRELEIHGRLRHRNIVRILDSGDTDSRGDGAGVGQDNRHFVVMELVAGKDLRWILQDKPASPEQTAAWMTDVARALAHVHRRGIVHNDIKPGNILVDFASDPGGPGVAKLADFGIALNGRHGVPNSSSGTPHYLSPEEVCGGTSTTASDIYSLGLVALECLTGTKAFPGPPLESMVARTLGEPRIPGTVRRRWSMVLHAMTDPDPAGRPSASQTVGMLRRLSW,failed
11,MHRGKETSTKPKKPVTRRKDFSASGKGKKRKKRRVHKMKPWQIALICVGAFIAALLAFGLMYVYAKWSKIDTKSIKADDIIINEEVKKNKNVDLGDGYTNVALFGVDSRDGDLGEGNRTDCIIVASLNNKTKEIKMVSVYRDTLLDLSEGTYQKCNAAYSYGGPVLAINMLNMNLDLDIQDYVTVDFGAIADAVDLLGGIEIEVTEEELPYINQYIPETANSAGKAANLLQSAGLQKLDGTQATTYARIRSTAGGDFTRTERQRLVIEKMFEKAKGADIGTLNKIIDKVFPQVSTSFTLPEILKYASAYSEYKLVGNMGFPEDKYTDMLSEIGSVVVPDNLVSNVTKLHEFLFGITGYVPSSTVQTVGSNISYTASAKKSSGTGSQSSYDSGESYNDSGYTDNSGNYEGGNTGGNYDDGSMSGNSGNTGNSGETGGVGGNGSTGDNTGGTTVEPPVVPDGGTDSGGGQTEAPPEGTVQ,failed
12,MHRLYRFCLFGMALLSSIAASAAPTDQELIAALYAKVQARQDWQAQARQCPGDNMPARAAIRATQANRCETPEQLGACLQRCEAGDGNDCYWLATTLQQAKGPAEGYEPLYQRACSLGLVSGCTNRAAGMLTADADSQGTRHCAVQTFNKACELDDPWACTMYGFHLSRGIGVAPDADLALKVLDKSCKHGPADPACSGARQLQEDIRNALEAAKR,failed
13,MHRVHGTLHASFTIECRNMFKRFFLALIGVGILLSESTQASESPPYSMVLLTENFPPFNMAVDGKNFAQENNIDGIAAEVVREMFKRANIGYSMTLRFPWDRVYKLALDKPGYGVFSTTRLPEREKLFKWIGPLGSYDWIMLARGDSPITLASLEQAKDYRIGAYKGDAIGERLNAMGLNPILMLRDRDNVKKLANGQIDLWAVGDPVGRYLAKLEGVSGFKTALRFNSAELYLAVNKSTPDEIVNRLQAALDQMRTEGWVDAVKARYQLEHHHHHH,not failed
14,MHSDALSWGHGPRLFEVFLEPTCPFSVKAFFKLDDLLAQAGEDNVTVRIRLQSQPWHMFSGVIVRCILAAATLEGGKESAKAVMTAVASHREEFEFEHHAGGPNLDATPNDIIARIERYSGLALAEAFANPELEHAVKWHTKYARQNGIHVSPTFMINGLVQPGMSSGDPVSKWVSDIG,not failed
15,MHSGLNPQDIAFLKTIIAFFFLSVFLFKVPVSQKIAYISSTPSKLSVFTQIAICAFLGIFSLFFFETIAYNHGAAANVVVVLMASAAISALFFGRLILKESIYINSLIGTLLAVAGISIISWKGENSLLMLINASIAGTGYGLFSVLVKKFKLNGGLFLTKYLLLFGSVYLAVPFLVNLHAIHFNIDIVLGLIGLAVLPTILGFFCTTKALSYMSAAKVQVTELSEPIFAALMAWVFIHEQPTLSFLYGAIFIISGIFVMNRAPKSN,failed
16,MHSIQSPRLRQHFPRRSPKKLALKKSGGLGHRAKASHCYRIVLYSHDTMGLGHKRRNLLIAQTLQKSRLPVEILVITGIEEGNEALTAAGINYVNLPSLRKNGDGSYSGRDLDLPLEKLIAWRSQLILKTIQQFQPDVLMVDNVPRGVERELDPSLKYLRQRPESLCVLGLRDILDQPGTVQRDWGQADNERAIRRYYDAVWVYGDPQVYDLRHEYGFAPDVTAKMRPLGYFHQGDRLQHLTKPWQETLSNWKLPSRFILGAVGGGQDGETLAIAFAQIPFTADLPGVLLTGPFMPESVRQKLKVSAQNNPDLTILPYFSEPTMLMWAAERVITMGGYNTTCEILSFQKPALIIPRIKPRQEQWLRATRLKQLGLVDVLHPDQVNAQNLTAWLHSAPTNQYNKPVLNLRATQQLPLVLGQLLSTRNCFMSQAC,failed
17,MHSNINTLIANHRAGHALDQAFYTDAEVFQTDLQEIFYKEWLFAIPACELDKPGSYVTHQVGNYNVIIVRGADNVIRAFHNACRHRGSVICKAKKGNNPKLVCPYHQWTYELDGRLLWARDMGPDFEPSRHGLKTVHCRELAGLIYICLADEAPDFERFAEVARPYLEVHDLSNAKVAHESSIVERGNWKLVWENNRECYHCGGNHPALCRTFPDDPSVTGIEGGETPSNLQAHFDRCEQAGMPSGFHLSGDGQFRVARMPLKEGAESYTMDGKTAVRRWLGRAAFADAGSLLKFHYPTTWNHFLSDHSIVFRVTPISPTETEVTTKWLVHKDAVEGVDYDLQRLTEVWIATNDEDREVVEFNQMGINSPAYEPGPYSPTQESGVLQFVEWYLSTLKRNSGPHAVAAE,not failed
18,MHSTIGRLLEQTADAYPDRDAVVYPDRNIRYTYAQFDSLCRQTAKGLMRMGIGKGDHVAIWASNISEWLAVQFATAKIGAVLVTVNTNYQAHELDYLLKQSDAAALIIMDSYRGTSYPDIVNSLIPELQEAKPGQLKSERYPFLKTLIYIGNKRLSGMYHWDDTEILAKTVTDAELEERMNSLDKDNVINMQYTSGTTGFPKGVMLTHFNVINNAANIAECMALTSQDRMCIPVPFFHCFGCVLGVLACVSVGAAMIPVQEFDPVTVLKTVEKEKCTVLHGVPTMFIAELHHPDFDAYDLSTLRTGIMAGSPCPSEVMKAVIERMGMKDITIAYGQTEASPVITQTRANDSFIRRVETTGRALPHTEVKIVEPGTCQEVQRGMQGELCTRGYHVMKGYYKDKDATRKAINHDGWLFTGDLAVMDEDGYCRITGRLKDMLIRGGENIYPREIEEFLYQHPAVLDVQVVGVPDAKFGEEAAAWIKLKDGKSVSPDELKAYCKGKIARHKIPRYVIFTDDYPMTAS,failed
19,MHTAICDELGIEFPIFAFTHCRDVVVAVSKAGGFGVLGAVGFTPEQLEIELNWIDEHIGDHPYGVDIVIPNKYEGMDSQLSADELAKTLRSMVPQEHLDFARKILADHGVPVEDADEDSLQLLGWTEATATPQVDAALKHPKMTMVANALGTPPADMIKHIHDSGRKVAALCGSPSQARKHADAGVDIIIAQGGEAGGHCGEVGSIVLWPQVVKEVAPVPVLAAGGIGSGQQIAAALALGTQGAWTGSQWLMVEEAANTAVQQAAYVKATSRDTVRSRSFTGKPARMLRNDWTEAWEQPESPKPLGMPLQYMVSGMAVKATHKYPNETVDVAFNPVGQVVGQFTKVEKTATVIERWVQEYLEATARLDALNAAASV,failed
